Experiments:
[1] = biological target: human IL-6R on HEK-Blue IL6 reporter cells (human) (UniProt P08887); assay: cell-based or functional assay
hyper IL-6 = assay: cell-based or functional assay

human IL-6R on HEK-Blue IL6 reporter cells (human), sequence (P08887 20-468): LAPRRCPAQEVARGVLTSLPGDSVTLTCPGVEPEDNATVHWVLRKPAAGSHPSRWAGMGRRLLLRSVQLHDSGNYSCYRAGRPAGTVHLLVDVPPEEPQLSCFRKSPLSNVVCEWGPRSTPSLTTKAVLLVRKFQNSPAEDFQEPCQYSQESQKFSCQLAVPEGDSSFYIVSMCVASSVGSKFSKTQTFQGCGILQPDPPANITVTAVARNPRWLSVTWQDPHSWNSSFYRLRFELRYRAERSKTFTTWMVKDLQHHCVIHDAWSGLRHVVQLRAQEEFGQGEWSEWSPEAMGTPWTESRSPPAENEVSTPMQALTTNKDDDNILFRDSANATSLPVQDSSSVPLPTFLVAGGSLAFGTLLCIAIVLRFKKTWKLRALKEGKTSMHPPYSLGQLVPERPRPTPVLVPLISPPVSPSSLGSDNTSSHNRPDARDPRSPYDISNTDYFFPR

B1: Tocilizumab (antibody, part only; not given: constant regions, V domains shown, not shown: another chain or arm of the molecule)
VH: QVQLQESGPGLVRPSQTLSLTCTVSGYSITSDHAWSWVRQPPGRGLEWIGYISYSGITTYNPSLKSRVTMLRDTSKNQFSLRLSSVTAADTAVYYCARSLARTTAMDYWGQGSLVTVSS
VL: DIQMTQSPSSLSASVGDRVTITCRASQDISSYLNWYQQKPGKAPKLLIYYTSRLHSGVPSRFSGSGSGTDFTFTISSLQPEDIATYYCQQGNTLPYTFGQGTKVEIK
IC50, HEK-Blue IL6 reporter cells, 20 pM IL-6 [1]: 1490 pM | IC50, cis-signaling, HEK-Blue IL6 cells, 20 pM free IL-6 [1]: 12.9 nM | IC90, HEK-Blue IL6 reporter cells, 20 pM IL-6 [1]: 23700 pM | trans-signaling, HEK-Blue IL6 cells, 200 pM hyper IL-6 (hyper IL-6): > 1 µM
